Results as given in the supplement of paper PMC5998384.

Legend:
HeLa Kyoto [1] = assay: solubility change mitosis vs G1/S (difference of NP-40 vs SDS log2 ratios) (log2 ratio difference); higher = more soluble in mitosis
HeLa Kyoto [2] = assay: melting temperature (median over replicates), in situ; higher = more thermally stable
HeLa Kyoto [3] = assay: thermal stability score vs G1/S (z-score of summed log2 fold changes over temperatures); higher = more thermally stable than in G1/S
[4] = cell cycle stage: early G1 (4.5 h after nocodazole release)
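Throughout, for melting temperature (median over replicates), in situ: HeLa Kyoto cells synchronized by double thymidine or nocodazole block, proteins quantified by TMT10plex mass spectrometry, three independent biological replicates.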
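Throughout, for solubility change mitosis vs G1/S (difference of NP-40 vs SDS log2 ratios): synchronized HeLa Kyoto cells (double thymidine block for G1/S, nocodazole release for mitosis), protein amounts in NP-40 versus SDS lysates quantified by mass spectrometry, three biological replicates.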
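Throughout, for thermal stability score vs G1/S (z-score of summed log2 fold changes over temperatures): synchronized HeLa Kyoto cells, proteins quantified by TMT10plex mass spectrometry, three biological replicates, mitosis taken 0.5 h after nocodazole release, G1/S directly after double thymidine block.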

Substance	solubility change mitosis (log2) (HeLa Kyoto [1])	melting temperature (HeLa Kyoto [2]; cell cycle stage: G1/S)	melting temperature (HeLa Kyoto [2]; cell cycle stage: mitosis)	thermal stability score (HeLa Kyoto [3]; [4])	thermal stability score (HeLa Kyoto [3]; cell cycle stage: mitosis)
ACACA	-0.227				
ACADSB	-0.0159				
ALYREF	0.776				
ARPC3	0.222				
ARPC4	-0.115				
CAMKMT	0.137				
CAPZA1	-0.0799				
CTBP1	-0.0691				
DAP3	-0.0659				
DDA1	0.3				
FMR1	0.261				
GNB2L1	0.272				
GOPC	-0.0477				
INPP4A	-0.0329				
KIAA0907	0.046				
KIAA1524	-0.103				
KPNA2	0.136				
LEO1	-0.0441				

Substance	solubility change mitosis (log2) (HeLa Kyoto [1])	melting temperature (HeLa Kyoto [2]; cell cycle stage: G1/S)	melting temperature (HeLa Kyoto [2]; cell cycle stage: mitosis)	thermal stability score (HeLa Kyoto [3]; [4])	thermal stability score (HeLa Kyoto [3]; cell cycle stage: mitosis)
MESALAVPRLPPHDPGTPVLSVVDMHTGGEPLRIVLAGCPEVSGPTLLAKRRYMRQHLDHVRRRLMFEPRGHRDMYGAVLVPSELPDAHLGVLFLHNEGYSSMCGHAVLALGRFALDFGLVPAPPAGTREARVNIHCPCGLVTAFVACEDGRSHGPVRFHSVPAFVLATDLMVDVPGHGKVMVDIAYGGAFYAFVTAEKLGLDICSAKTRDLVDAASAVTEAVKAQFKINHPDSEDLAFLYGTILTDGKDAYTKEPTTNICVFADEQVDRSPTGSGVTARIALQYHKGLLELNQMRAFKSSATGSVFTGKAVREAKCGDFKAVIVEVSGQAHYTGTASFIIEDDDPLRDGFLLK [L3HYPDH]		55.6 °C	54.4 °C	0.886	0.62
MESQKEARTLQEPVARPSGASSSQTPNDKERREGGAVPAAAALGAEADDDSADGLWELPVEPAERRPECTRCSRPQKVCLCPFLPAHPLHISTHLYIIQHPAEENKVLRTVPLLAACLPQDKCKVKIGRRFSEERDPELSTVCRKSGTLILYPGAEAANLEEFILDSPVYPSTIIIIDGTWSQAKDIFYKNSLFRHPKQVQLKTSISSQYVIRMQPTNRCLSTLECAAVALSILEKNNYIQETLLRPLQALCSFQLQHGAQIRLSKEHLLKNGLYPKPMPKNKRKLRKMELLMNSVKI [DTWD2]			51.2 °C	0.37	0.624
METAP1	0.0188				
METDLNSQDRKDLDKFIKFFALKTVQVIVQARLGEKICTRSSSSPTGSDWFNLAIKDIPEVTHEAKKALAGQLPAVGRSMCVEISLKTSEGDSMELEIWCLEMNEKCDKEIKVSYTVYNRLSLLLKSLLAITRVTPAYRLSRKQGHEYVILYRIYFGEVQLSGLGEGFQTVRVGTVGTPVGTITLSCAYRINLAFMSTRQFERTPPIMGIIIDHFVDRPYPSSSPMHPCNYRTAGEDTGVIYPSVEDSQEVCTTSFSTSPPSQLSSSRLSYQPAALGVGSADLAYPVVFAAGLNATHPHQLMVPGKEGGVPLAPNQPVHGTQADQERLATCTPSDRTHCAATPSSSEDTETVSNSSEGRASPHDVLETIFVRKVGAFVNKPINQVTLTSLDIPFAMFAPKNLELEDTDPMVNPPDSPETESPLQGSLHSDGSSGGSSGNTHDDFVMIDFKPAFSKDDILPMDLGTFYREFQNPPQLSSLSIDIGAQSMAEDLDSLPEKLAVHEKNVREFDAFVETLQ [ATG13]		51.7 °C	52.2 °C	0.178	-1.05
MEVVEAAAAQLETLKFNGTDFGVGEGPAAPSPGSAPVPGTQPPLQSFEGSPDAGQTVEVKPAGEQPLQPVLNAVAAGTPAPQPQPPAESPACGDCVTSPGAAEPARAPDSLETSDSDSDSDSETDSDSSSSSSSSSSSSSSSSSSCISLPPVLSDGDDDLQIEKENKNFPLKTKDELLLNELPSVEELTIILPEDIELKPLGMVSSIIEQLVIIESMTNLPPVNEETVIFKSDRQAAGKIFEIFGPVAHPFYVLRFNSSDHIESKGIKIKETMYFAPSMKDFTQYIFTEKLKQDKGSDASWKNDQEPPPEALDFSDDEKEKEAKQRKKSQIQGRKKLKSEFNEPGEDFTEVHQNWNAHSSASEHAKGYRNREFTRGFSRARYPRSCHGRPPPQHFYNSEHMVSQETSGFPSQRQNNPIMPQYPFPLPVFDMHNFPLRPPPPPPPPPVNMGWATPNMAAHPLLNLPYSLPPPPPPPPLPPPPSSGDSNSHFGPYY [NAF1]		52 °C	52.1 °C	0.0445	-1.83
MGLPALEFSDCCLDSPHFRETLKSHEAELDKTNKFIKELIKDGKSLISALKNLSSAKRKFADSLNEFKFQCIGDAETDDEMCIARSLQEFATVLRNLEDERIRMIENASEVLITPLEKFRKEQIGAAKEAKKKYDKETEKYCGILEKHLNLSSKKKESQLQEADSQVDLVRQHFYEVSLEYVFKVQEVQERKMFEFVEPLLAFLQGLFTFYHHGYELAKDFGDFKTQLTISIQNTRNRFEGTRSEVESLMKKMKENPLEHKTISPYTMEGYLYVQEKRHFGTSWVKHYCTYQRDSKQITMVPFDQKSGGKGGEDESVILKSCTRRKTDSIEKRFCFDVEAVDRPGVITMQALSEEDRRLWMEAMDGREPVYNSNKDSQSEGTAQLDSIGFSIIRKCIHAVETRGINEQGLYRIVGVNSRVQKLLSVLMDPKTASETETDICAEWEIKTITSALKTYLRMLPGPLMMYQFQRSFIKAAKLENQESRVSEIHSLVHRLPEKNRQMLQLLMNHLANVANNHKQNLMTVANLGVVFGPTLLRPQEETVAAIMDIKFQNIVIEILIENHEKIFNTVPDMPLTNAQLHLSRKKSSDSKPPSCSERPLTLFHTVQSTEKQEQRNSIINSSLESVSSNPNSILNSSSSLQPNMNSSDPDLAVVKPTRPNSLPPNPSPTSPLSPSWPMFSAPSSPMPTSSTSSDSSPVRSVAGFVWFSVAAVVLSLARSSLHAVFSLLVNFVPCHPNLHLLFDRPEEAVHEDSSTPFRKAKALYACKAEHDSELSFTAGTVFDNVHPSQEPGWLEGTLNGKTGLIPENYVEFL [ARHGAP26]			52 °C	-0.227	-0.147
MGRSRSRSPRRERRRSRSTSRERERRRRERSRSRERDRRRSRSRSPHRRRSRSPRRHRSTSPSPSRLKERRDEEKKETKETKSKERQITEEDLEGKTEEEIEMMKLMGFASFDSTKGKKVDGSVNAYAINVSQKRKYRQYMNRKGGFNRPLDFIA [SNRNP27]		54 °C	53.3 °C	1.03	0.903
MGSQEVLGHAARLASSGLLLQVLFRLITFVLNAFILRFLSKEIVGVVNVRLTLLYSTTLFLAREAFRRACLSGGTQRDWSQTLNLLWLTVPLGVFWSLFLGWIWLQLLEVPDPNVVPHYATGVVLFGLSAVVELLGEPFWVLAQAHMFVKLKVIAESLSVILKSVLTAFLVLWLPHWGLYIFSLAQLFYTTVLVLCYVIYFTKLLGSPESTKLQTLPVSRITDLLPNITRNGAFINWKEAKLTWSFFKQSFLKQILTEGERYVMTFLNVLNFGDQGVYDIVNNLGSLVARLIFQPIEESFYIFFAKVLERGKDATLQKQEDVAVAAAVLESLLKLALLAGLTITVFGFAYSQLALDIYGGTMLSSGSGPVLLRSYCLYVLLLAINGVTECFTFAAMSKEEVDRYNFVMLALSSSFLVLSYLLTRWCGSVGFILANCFNMGIRITQSLCFIHRYYRRSPHRPLAGLHLSPVLLGTFALSGGVTAVSEVFLCCEQGWPARLAHIAVGAFCLGATLGTAFLTETKLIHFLRTQLGVPRRTDKMT [RFT1]		57.1 °C	56.9 °C	-1.46	-1.12
MGVNAVHWFRKGLRLHDNPALKECIQGADTIRCVYILDPWFAGSSNVGINRWRFLLQCLEDLDANLRKLNSRLFVIRGQPADVFPRLFKEWNITKLSIEYDSEPFGKERDAAIKKLATEAGVEVIVRISHTLYDLDKIIELNGGQPPLTYKRFQTLISKMEPLEIPVETITSEVIEKCTTPLSDDHDEKYGVPSLEELGFDTDGLSSAVWPGGETEALTRLERHLERKAWVANFERPRMNANSLLASPTGLSPYLRFGCLSCRLFYFKLTDLYKKVKKNSSPPLSLYGQLLWREFFYTAATNNPRFDKMEGNPICVQIPWDKNPEALAKWAEGRTGFPWIDAIMTQLRQEGWIHHLARHAVACFLTRGDLWISWEEGMKVFEELLLDADWSINAGSWMWLSCSSFFQQFFHCYCPVGFGRRTDPNGDYIRRYLPVLRGFPAKYIYDPWNAPEGIQKVAKCLIGVNYPKPMVNHAEASRLNIERMKQIYQQLSRYRGLGLLASVPSNPNGNGGFMGYSAENIPGCSSSGSCSQGSGILHYAHGDSQQTHLLKQGRSSMGTGLSGGKRPSQEEDTQSIGPKVQRQSTN [CRY1]			52 °C	0.298	-0.281
MIB1	0.06				
MIKAILIFNNHGKPRLSKFYQPYSEDTQQQIIRETFHLVSKRDENVCNFLEGGLLIGGSDNKLIYRHYATLYFVFCVDSSESELGILDLIQVFVETLDKCFENVCELDLIFHVDKVHNILAEMVMGGMVLETNMNEIVTQIDAQNKLEKSEAGLAGAPARAVSAVKNMNLPEIPRNINIGDISIKVPNLPSFK [AP3S1]		50.8 °C	51.2 °C	-0.187	-0.378
MLKPALEPRGGFSFENCQRNASLERVLPGLKVPHARKTGTTIAGLVFQDGVILGADTRATNDSVVADKSCEKIHFIAPKIYCCGAGVAADAEMTTRMVASKMELHALSTGREPRVATVTRILRQTLFRYQGHVGASLIVGGVDLTGPQLYGVHPHGSYSRLPFTALGSGQDAALAVLEDRFQPNMTLEAAQGLLVEAVTAGILGDLGSGGNVDACVITKTGAKLLRTLSSPTEPVKRSGRYHFVPGTTAVLTQTVKPLTLELVEETVQAMEVE [PSMB10]		53.3 °C	52.6 °C	0.227	0.56
MREIVHLQAGQCGNQIGAKFWEVISDEHGIDPTGTYHGDSDLQLERINVYYNEATGGKYVPRAVLVDLEPGTMDSVRSGPFGQIFRPDNFVFGQSGAGNNWAKGHYTEGAELVDSVLDVVRKEAESCDCLQGFQLTHSLGGGTGSGMGTLLISKIREEYPDRIMNTFSVVPSPKVSDTVVEPYNATLSVHQLVENTDETYCIDNEALYDICFRTLKLTTPTYGDLNHLVSATMSGVTTCLRFPGQLNADLRKLAVNMVPFPRLHFFMPGFAPLTSRGSQQYRALTVPELTQQMFDAKNMMAACDPRHGRYLTVAAVFRGRMSMKEVDEQMLNVQNKNSSYFVEWIPNNVKTAVCDIPPRGLKMSATFIGNSTAIQELFKRISEQFTAMFRRKAFLHWYTGEGMDEMEFTEAESNMNDLVSEYQQYQDATAEEEGEFEEEAEEEVA [TUBB4B]			54.4 °C	0.304	-1.31
MRPL10	-0.0658				
MRPL11	0.173				
MSGGRAPAVLLGGVASLLLSFVWMPALLPVASRLLLLPRVLLTMASGSPPTQPSPASDSGSGYVPGSVSAAFVTCPNEKVAKEIARAVVEKRLAACVNLIPQITSIYEWKGKIEEDSEVLMMIKTQSSLVPALTDFVRSVHPYEVAEVIALPVEQGNFPYLQWVRQVTESVSDSITVLP [CUTA]		57.7 °C	54.8 °C	-1.46	-1.38
MSGTRASNDRPPGAGGVKRGRLQQEAAATGSRVTVVLGAQWGDEGKGKVVDLLATDADIISRCQGGNNAGHTVVVDGKEYDFHLLPSGIINTKAVSFIGNGVVIHLPGLFEEAEKNEKKGLKDWEKRLIISDRAHLVFDFHQAVDGLQEVQRQAQEGKNIGTTKKGIGPTYSSKAARTGLRICDLLSDFDEFSSRFKNLAHQHQSMFPTLEIDIEGQLKRLKGFAERIRPMVRDGVYFMYEALHGPPKKILVEGANAALLDIDFGTYPFVTSSNCTVGGVCTGLGIPPQNIGDVYGVVKAYTTRVGIGAFPTEQINEIGGLLQTRGHEWGVTTGRKRRCGWLDLMILRYAHMVNGFTALALTKLDILDVLGEVKVGVSYKLNGKRIPYFPANQEMLQKVEVEYETLPGWKADTTGARRWEDLPPQAQNYIRFVENHVGVAVKWVGVGKSRESMIQLF [ADSSL1]		55.3 °C	55.4 °C	-1.69	-2.13
MYH14		53.1 °C	52.2 °C	-0.174	-1.24
